The target in test [1] is carcinoembryonic antigen (CEA) (UniProt P06731). The test is described as follows: SEC-HPLC; the conjugate without CEA eluted at 10.312 min and 10.331 min in serum. In general terms: SEC sorts molecules by how far they enter the pores of the column.
Test [2] concerns the target somatostatin receptors on AR42J cells (rat). Description: apparent IC50; competition with ^111In(DTPA-octreotide) on AR42J cells, 3 h at RT.
The target in test [3] is gastrin-releasing peptide receptor on PC-3 cells (UniProt P30550). Description: competition with ^125I-BBN for binding to PC-3 cells, inhibitor 250 to 2 nM.
Chain of UniProt P30550 (P30550 whole entry): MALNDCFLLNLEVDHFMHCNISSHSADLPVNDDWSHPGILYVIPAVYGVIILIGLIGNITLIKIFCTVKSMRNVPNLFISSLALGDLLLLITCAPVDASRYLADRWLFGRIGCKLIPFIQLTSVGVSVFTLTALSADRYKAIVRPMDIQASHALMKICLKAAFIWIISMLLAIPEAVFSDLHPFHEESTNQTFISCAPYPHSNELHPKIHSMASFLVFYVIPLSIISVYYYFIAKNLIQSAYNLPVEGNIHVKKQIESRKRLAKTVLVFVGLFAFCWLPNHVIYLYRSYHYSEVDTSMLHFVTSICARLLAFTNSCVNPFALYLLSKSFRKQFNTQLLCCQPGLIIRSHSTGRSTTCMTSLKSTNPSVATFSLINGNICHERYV
For test [4] the target is unchanged. The test is described as follows: competition with ^125I-Bombesin for binding to 3x10^6 PC-3 cells, inhibitor 56 to 0.44 nM.

pIC50: −log10 of the molar value.

Chain of UniProt P06731 (P06731 35-685 limits assumed): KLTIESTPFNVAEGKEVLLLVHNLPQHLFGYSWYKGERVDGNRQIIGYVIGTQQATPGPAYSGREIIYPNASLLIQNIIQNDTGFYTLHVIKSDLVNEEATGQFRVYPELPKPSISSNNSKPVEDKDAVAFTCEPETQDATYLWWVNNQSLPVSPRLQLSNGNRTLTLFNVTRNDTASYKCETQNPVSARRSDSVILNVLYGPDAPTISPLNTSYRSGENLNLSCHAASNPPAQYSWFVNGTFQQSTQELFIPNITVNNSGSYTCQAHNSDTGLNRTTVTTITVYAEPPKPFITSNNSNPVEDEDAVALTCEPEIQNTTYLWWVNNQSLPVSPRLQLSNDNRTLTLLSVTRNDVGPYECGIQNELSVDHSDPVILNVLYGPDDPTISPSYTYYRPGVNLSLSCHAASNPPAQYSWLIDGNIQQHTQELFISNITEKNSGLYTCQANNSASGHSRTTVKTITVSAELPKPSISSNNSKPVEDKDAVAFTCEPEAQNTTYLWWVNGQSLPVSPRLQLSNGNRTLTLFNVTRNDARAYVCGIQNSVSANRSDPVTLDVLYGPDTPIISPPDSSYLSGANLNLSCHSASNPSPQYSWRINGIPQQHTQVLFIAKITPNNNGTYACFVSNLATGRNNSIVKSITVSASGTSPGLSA

Substance Al^18F(NODA-MPAES)-hMN-14 Fab' came in with an SEC-HPLC retention time of the major product after adding CEA in test [1] of 7.21 min.

With “Al^19F(IMP466) (Al^19F complex of NOTA-D-Phe-Cys-Phe-D-Trp-Lys-Thr-Cys-Throl) (peptide)”, in test [2], the pIC50 (commonly −log10 of the IC50, conventionally taken in molar units) was 8.44.

For “IMP468 (NOTA-NH-(CH2)7CO-Gln-Trp-Val-Trp-Ala-Val-Gly-His-Leu-Met-NH2) (peptide)”, the results for the pIC50 in test [3] and in test [4] were 7.44 and 7.67, respectively.

As to “^69Ga(IMP466) (^69Ga complex of NOTA-D-Phe-Cys-Phe-D-Trp-Lys-Thr-Cys-Throl) (peptide)”, the pIC50 in test [2] was 7.89.

As to ^115In(DTPA-octreotide) (peptide), the pIC50 in test [2] is 8.20.

In test [3], “commercially available BBN peptide (bombesin positive control)” had a pIC50 of 7.61.

These data come from EP2651411B1.
